Source: the RNAGym collection of RNA variant scans (doi:10.1101/gr.219683.116)

B1: mRNA-splicing (parent)
chain: AGUUGCUGCUGGGAGCUCCAGCACAGUGAAAUGGACAGAAGGGCAGAGCAA

Variants of: B1
Experiment: exon inclusion enrichment index; higher = more inclusion; WT1 exon 5 minigene, HEK293

Row | Variant | exon inclusion enrichment index
1 | G5A U7C G8A U10C G41A G42C | 2.53
2 | G5A U7C G8A U10C G41A G42U | 1.8
3 | G5A U7C G8A U10C G41C | 3.34
4 | G5A U7C G8A U10C G41C G42A | 2.13
5 | G5A U7C G8A U10C G41C G42C | 3.27
6 | G5A U7C G8A U10C G41C G42U | 3.05
7 | G5A U7C G8A U10C G41U | 2.09
8 | G5A U7C G8A U10C G41U G42A | 0.909
9 | G5A U7C G8A U10C G41U G42C | 2.97
10 | G5A U7C G8A U10C G41U G42U | 1.9
11 | G5A U7C G8A U10C G42A | 3.71
12 | G5A U7C G8A U10C G42A G43A | 4.61
13 | G5A U7C G8A U10C G42A G43C | 4.19
14 | G5A U7C G8A U10C G42A G43U | 4.5
15 | G5A U7C G8A U10C G42C | 3.71
16 | G5A U7C G8A U10C G42C G43A | 3
17 | G5A U7C G8A U10C G42C G43C | 3.5
18 | G5A U7C G8A U10C G42C G43U | 3.18
19 | G5A U7C G8A U10C G42U | 2.55
20 | G5A U7C G8A U10C G42U G43A | 3.16
21 | G5A U7C G8A U10C G42U G43C | 1.5
22 | G5A U7C G8A U10C G42U G43U | 3.03
23 | G5A U7C G8A U10C G43A | 4.17
24 | G5A U7C G8A U10C G43A C44A | 3.99

Row | Variant | exon inclusion enrichment index
25 | G5A U7C G8A U10C G43A C44G | 4.11
26 | G5A U7C G8A U10C G43A C44U | 2.57
27 | G5A U7C G8A U10C G43C | 2.52
28 | G5A U7C G8A U10C G43C C44A | 3.61
29 | G5A U7C G8A U10C G43C C44G | 4.39
30 | G5A U7C G8A U10C G43C C44U | 1.59
31 | G5A U7C G8A U10C G43U | 1.89
32 | G5A U7C G8A U10C G43U C44A | 0.058
33 | G5A U7C G8A U10C G43U C44G | 0.5
34 | G5A U7C G8A U10C G43U C44U | 0.735
35 | G5A U7C G8A U10C G46A | 2.32
36 | G5A U7C G8A U10C G46A A47C | 3.08
37 | G5A U7C G8A U10C G46A A47G | 0.953
38 | G5A U7C G8A U10C G46A A47U | 2.29
39 | G5A U7C G8A U10C G46C | 2.03
40 | G5A U7C G8A U10C G46C A47C | 1.81
41 | G5A U7C G8A U10C G46C A47G | 2.57
42 | G5A U7C G8A U10C G46C A47U | 2.03
43 | G5A U7C G8A U10C G46U | 1.6
44 | G5A U7C G8A U10C G46U A47C | 2.94
45 | G5A U7C G8A U10C G46U A47G | 1.85
46 | G5A U7C G8A U10C G46U A47U | 2.48
47 | G5A U7C G8A U10C G48A | 2.99
48 | G5A U7C G8A U10C G48C | 2.4

Row | Variant | exon inclusion enrichment index
49 | G5A U7C G8A U10C G48U | 2.83
50 | G5A U7C G8A U10C U17A | 1.89
51 | G5A U7C G8A U10C U17A C18A | 1.29
52 | G5A U7C G8A U10C U17A C18G | 2
53 | G5A U7C G8A U10C U17A C18U | 1.52
54 | G5A U7C G8A U10C U17C | 1.62
55 | G5A U7C G8A U10C U17C C18A | 1.54
56 | G5A U7C G8A U10C U17C C18G | 2.38
57 | G5A U7C G8A U10C U17C C18U | 1.85
58 | G5A U7C G8A U10C U17G | 1.81
59 | G5A U7C G8A U10C U17G C18A | 2.15
60 | G5A U7C G8A U10C U17G C18G | 1.96
61 | G5A U7C G8A U10C U17G C18U | 1.66
62 | G5A U7C G8A U10C U27A | 2.49
63 | G5A U7C G8A U10C U27A G28A | 2.27
64 | G5A U7C G8A U10C U27A G28C | 2.42
65 | G5A U7C G8A U10C U27A G28U | 0.834
66 | G5A U7C G8A U10C U27C | 4.31
67 | G5A U7C G8A U10C U27C G28A | 2.31
68 | G5A U7C G8A U10C U27C G28C | 2.7
69 | G5A U7C G8A U10C U27C G28U | 1.74
70 | G5A U7C G8A U10C U27G | 1.05
71 | G5A U7C G8A U10C U27G G28A | 2.37
72 | G5A U7C G8A U10C U27G G28C | 1.17

Row | Variant | exon inclusion enrichment index
73 | G5A U7C G8A U10C U27G G28U | 0.0167
74 | G5A U7C G8A U10C U32A | 1.87
75 | G5A U7C G8A U10C U32A G33A | 1.05
76 | G5A U7C G8A U10C U32A G33C | 2.91
77 | G5A U7C G8A U10C U32A G33U | 1.68
78 | G5A U7C G8A U10C U32C | 3.88
79 | G5A U7C G8A U10C U32C G33A | 1.18
80 | G5A U7C G8A U10C U32C G33C | 3.24
81 | G5A U7C G8A U10C U32C G33U | 1.75
82 | G5A U7C G8A U10C U32G | 0.244
83 | G5A U7C G8A U10C U32G G33A | 0.707
84 | G5A U7C G8A U10C U32G G33C | 2.16
85 | G5A U7C G8A U10C U32G G33U | 0.923
86 | G5A U7C G8A U10G | 1.28
87 | G5A U7C G8A U10G G11A | 2.46
88 | G5A U7C G8A U10G G11C | 2.55
89 | G5A U7C G8A U10G G11U | 2.44
90 | G5A U7C G8C C9A U10C | 1.56
91 | G5A U7C G8C C9G U10C | 1.58
92 | G5A U7C G8C C9U U10C | 1.27
93 | G5A U7C G8C U10C | 1.39
94 | G5A U7C G8U C9A | 0.658
95 | G5A U7C G8U C9A U10C | 1.23
96 | G5A U7C G8U C9G U10C | 1.91

Row | Variant | exon inclusion enrichment index
97 | G5A U7C G8U C9U U10C | 1.17
98 | G5A U7C G8U U10C | 1.92
99 | G5A U7C U10C | 4.21
100 | G5A U7G C9A | 1.5
101 | G5A U7G G8A U10C | 2.7
102 | G5A U7G G8C U10C | 2.13
103 | G5A U7G G8U C9A | 0.583
104 | G5A U7G G8U U10C | 2.36
105 | G5A U7G U10C | 0.936
106 | G5A U10C | 2.01
107 | G5C | 0.147
108 | G5C C6A | 0.0337
109 | G5C C6A G8A U10A | 0.0612
110 | G5C C6A G8C C9U U10C | 2.4
111 | G5C C6A G8C U10A | 0.77
112 | G5C C6A G8U C9U | 0.42
113 | G5C C6A G8U U10A | 0.0451
114 | G5C C6A U7A C9A U10A | 0.906
115 | G5C C6A U7A G8A U10A | 0.0993
116 | G5C C6A U7A G8C C9U U10C | 2.04
117 | G5C C6A U7A G8C U10A | 0.514
118 | G5C C6A U7A G8U C9A | 0.415
119 | G5C C6A U7A G8U U10A | 0.0878
120 | G5C C6A U7A U10A | 0.407

Row | Variant | exon inclusion enrichment index
121 | G5C C6A U7A U10C | 3.35
122 | G5C C6A U7C C9A U10A | 0.851
123 | G5C C6A U7C C9A U10C | 2.61
124 | G5C C6A U7C C9G U10A | 1.72
125 | G5C C6A U7C C9U U10A | 0.0237
126 | G5C C6A U7C G8A | 0.613
127 | G5C C6A U7C G8A C9A | 0.746
128 | G5C C6A U7C G8A C9A U10A | 0.239
129 | G5C C6A U7C G8A C9A U10C | 1.81
130 | G5C C6A U7C G8A C9A U10G | 0.428
131 | G5C C6A U7C G8A C9G | 0.446
132 | G5C C6A U7C G8A C9G U10A | 0.545
133 | G5C C6A U7C G8A C9G U10C | 1.42
134 | G5C C6A U7C G8A C9G U10G | 0.11
135 | G5C C6A U7C G8A C9U | 0.616
136 | G5C C6A U7C G8A C9U U10A | 0.0185
137 | G5C C6A U7C G8A C9U U10C | 2.03
138 | G5C C6A U7C G8A C9U U10G | 0.525
139 | G5C C6A U7C G8A G11A | 0.126
140 | G5C C6A U7C G8A G11C | 1.01
141 | G5C C6A U7C G8A G11U | 0.768
142 | G5C C6A U7C G8A U10A | 0.12
143 | G5C C6A U7C G8A U10A A14C | 0.0603
144 | G5C C6A U7C G8A U10A A14C G15A | 0.0306

Row | Variant | exon inclusion enrichment index
145 | G5C C6A U7C G8A U10A A14C G15C | 0.00871
146 | G5C C6A U7C G8A U10A A14C G15U | 0.00827
147 | G5C C6A U7C G8A U10A A14G | 0.0477
148 | G5C C6A U7C G8A U10A A14G G15A | 0.119
149 | G5C C6A U7C G8A U10A A14G G15C | 0.0391
150 | G5C C6A U7C G8A U10A A14G G15U | 0.0158
151 | G5C C6A U7C G8A U10A A14U | 0.0358
152 | G5C C6A U7C G8A U10A A14U G15A | 0.00771
153 | G5C C6A U7C G8A U10A A14U G15C | 0.0301
154 | G5C C6A U7C G8A U10A A14U G15U | 0.0233
155 | G5C C6A U7C G8A U10A A20C | 0.142
156 | G5C C6A U7C G8A U10A A20C G21A | 0.0158
157 | G5C C6A U7C G8A U10A A20C G21C | 0.00894
158 | G5C C6A U7C G8A U10A A20C G21U | 0.0192
159 | G5C C6A U7C G8A U10A A20G | 0.306
160 | G5C C6A U7C G8A U10A A20G G21A | 0.186
161 | G5C C6A U7C G8A U10A A20G G21C | 0.164
162 | G5C C6A U7C G8A U10A A20G G21U | 0.177
163 | G5C C6A U7C G8A U10A A20U | 0.199
164 | G5C C6A U7C G8A U10A A20U G21A | 0.0323
165 | G5C C6A U7C G8A U10A A20U G21C | 0.0942
166 | G5C C6A U7C G8A U10A A20U G21U | 0.037
167 | G5C C6A U7C G8A U10A A23C | 0.0903
